Target: T1, XPF (UniProt Q92889 1-916)
T1 sequence (looked up): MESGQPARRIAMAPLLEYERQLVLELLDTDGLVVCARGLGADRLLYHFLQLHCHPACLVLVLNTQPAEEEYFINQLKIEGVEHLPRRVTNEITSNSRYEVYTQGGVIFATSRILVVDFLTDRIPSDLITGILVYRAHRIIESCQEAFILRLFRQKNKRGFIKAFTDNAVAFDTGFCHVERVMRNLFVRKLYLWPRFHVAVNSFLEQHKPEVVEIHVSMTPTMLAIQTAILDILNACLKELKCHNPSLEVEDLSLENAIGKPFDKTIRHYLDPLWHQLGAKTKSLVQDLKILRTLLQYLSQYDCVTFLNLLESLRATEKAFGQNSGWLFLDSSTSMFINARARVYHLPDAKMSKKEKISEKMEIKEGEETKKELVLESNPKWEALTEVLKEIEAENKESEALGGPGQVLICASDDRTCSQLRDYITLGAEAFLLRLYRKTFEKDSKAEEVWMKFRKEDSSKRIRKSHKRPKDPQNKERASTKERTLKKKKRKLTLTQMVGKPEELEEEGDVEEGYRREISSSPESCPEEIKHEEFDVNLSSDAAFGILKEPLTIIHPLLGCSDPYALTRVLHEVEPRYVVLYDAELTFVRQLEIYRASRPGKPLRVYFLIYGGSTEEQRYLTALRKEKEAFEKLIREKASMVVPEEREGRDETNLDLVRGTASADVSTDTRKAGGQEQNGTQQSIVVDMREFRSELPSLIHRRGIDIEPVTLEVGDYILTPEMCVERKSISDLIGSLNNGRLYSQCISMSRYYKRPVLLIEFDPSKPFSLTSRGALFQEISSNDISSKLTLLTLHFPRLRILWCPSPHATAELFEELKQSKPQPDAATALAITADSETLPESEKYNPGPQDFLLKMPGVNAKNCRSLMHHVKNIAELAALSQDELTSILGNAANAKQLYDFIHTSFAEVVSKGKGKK
Experiment: SPR

- Kd: ~5 nM
B1: ERCC1 (natural protein, UniProt P07992 1-297, looked up)
chain: MDPGKDKEGVPQPSGPPARKKFVIPLDEDEVPPGVAKPLFRSTQSLPTVDTSAQAAPQTYAEYAISQPLEGAGATCPTGSEPLAGETPNQALKPGAKSNSIIVSPRQRGNPVLKFVRNVPWEFGDVIPDYVLGQSTCALFLSLRYHNLHPDYIHGRLQSLGKNFALRVLLVQVDVKDPQQALKELAKMCILADCTLILAWSPEEAGRYLETYKAYEQKPADLLMEKLEQDFVSRVTECLTTVKSVNKTDSQTLLTTFGSLEQLIAASREDLALCPGLGPQKARRLFDVLHEPFLKVP

— article PMC3488251 (Nucleic Acids Research, 2012)
